Reference: article PMC10875832 (2024)

Experiments:
[1] = target: soluble CAR D12 (chicken); assay: SPR
[2] = target: soluble CAR D1 domain (chicken); assay: SPR

B1: CELO fiber1 knob (domain or fragment)
chain: GSSTPEVATYHCGDNLLESYDIFASLPNTNAAKVAAYCRLAAAGGVVSGTIQVTSYAGRWPKVGNSVTDGIKFAIVVSPPMDKDPRSNLSQWLGATVFPAGATTALFSPNPYGSLNTITTLPSIASDWYVPESNLVTYTKIHFKPTGSQQLQLASGELVVAAAKSPVQTTKYELIYLGFTLKQNSSGTNFFDPNASSDLSFLTPPIPFTYLGYYQ
[1]
  Kd: 115 nM
[2]
  Kd: 420 nM
